In patent US20100254988A1:

Tests used:
human c-Met ECD (human) = human c-Met ECD (human) (UniProt P08581); assay: SPR (Biacore T100), antibody captured by anti-Fc gamma antibody, c-Met ECD as analyte, 25 C
[1] = target: c-Met receptor on OVCAR-8 cells (human) (UniProt P08581); assay: cell-based or functional assay

Substance: BsAB02, trivalent bispecific <ErbB-2-c-Met> antibody (full length trastuzumab with one single chain Fab fragment of c-Met 5D5 (humanized) at the C-terminus of the knob heavy chain) (bispecific antibody)
- Kd (human c-Met ECD (human)): 8.2 nM
- % Internalization of c-Met after 1 hour on OVCAR-8 cells (=100-% antibody on cell surface) [1]: -7%
- % c-Met receptor on OVCAR-8 cell surface measured after 1 hour [1]: 107%
